According to USRE49583E1, “Inducible expression systems” (priority 2005, dated 2023):
Where a chain is given by its changes, count along the chain named. Names may count otherwise. “Also recorded” adds a separate entry of the source.

B1: V9I G19M F67S G138D F86Y: rtTA variant with these amino acid substitutions (protein)
chain: MSRLDKSKIINSALELLNMVGIEGLTTRKLAQKLGVEQPTLYWHVKNKRALLDALPIEMLDRHHTHSCPLEGESWQDFLRNNAKSYRCALLSHRDGAKVHLGTRPTEKQYETLENQLAFLCQQGFSLENALYALSAVDHFTLGCVLEEQEHQVAKEERETPTTDSMPPLLRQAIELFDRQGAEPAFLFGLELIICGLEKQLKCESGGPADALDDFDLDMLPADALDDFDLDMLPADALDDFDLDMLPG
B2: V9I G19M F67S G138D F86Y A209T: rtTA variant with these amino acid substitutions (protein)
chain: B1 chain with A209T
B3: E37Q F67S F86Y: rtTA variant with these amino acid substitutions (protein)
chain: B1 chain with I9V, M19G, E37Q, D138G
B4: V9I S12G F67S G138D F86Y: rtTA variant with these amino acid substitutions (protein)
chain: B1 chain with S12G, M19G
B5: V9I S12G F67S G138D F86Y A209T: rtTA variant with these amino acid substitutions (protein)
chain: B1 chain with S12G, M19G, A209T
B6: V9I C68R G138D F86Y: rtTA variant with these amino acid substitutions (protein)
chain: B1 chain with M19G, S67F, C68R
B7: V9I F67S R171K F86Y: rtTA variant with these amino acid substitutions (protein)
chain: B1 chain with M19G, D138G, R171K
B8: V9I F67S C68R G138D F86Y: rtTA variant with these amino acid substitutions (protein)
chain: B1 chain with M19G, C68R
B9: V9I F67S G138D F86Y: rtTA variant with these amino acid substitutions (protein)
chain: B1 chain with M19G
B10: V9I F67S C68R G138D F86Y A209T: rtTA variant with these amino acid substitutions (protein)
chain: B1 chain with M19G, C68R, A209T
B11: E37Q F67S F86Y A209T: rtTA variant with these amino acid substitutions (protein)
chain: B1 chain with I9V, M19G, E37Q, D138G, A209T
B12: V9I F67S E157K F86Y: rtTA variant with these amino acid substitutions (protein)
chain: B1 chain with M19G, D138G, E157K

System: chromosomally integrated CMV-7tetO luciferase reporter in HeLa X1/6 cells
Test: rtTA activity assay, HeLa X1/6 cells with integrated CMV-7tetO luciferase reporter (Example 1, FIG. 2-3, 5, 14, 15)
Assay type: cell-based
Conditions: for basal / background activity in the absence of inducer: no dox or other effector; for rtTA activation by minocycline (Mc): 0-10000 ng/ml Mc; for rtTA activation by tetracycline (Tc): 0-10000 ng/ml Tc
From the text: To test whether this rtTA optimization reflects a specific adaptation to the viral LTR-2ΔtetO promoter, we assayed rtTA activity with a reporter gene construct in which luciferase expression is under the control of a minimal CMV promoter coupled to an array of seven tetO elements. […] Thus, the observed mutations in rtTA are not virus-specific adaptations, but are general improvements of the Tet-on system. We also assayed rtTA activity in HeLa X1/6 cells that contain chromosomally integrated copies of the CMV-7tetO luciferase reporter construct (FIG. 2C). In these cells, the evolved rtTAs show a similar pattern of activity as with episomal reporter gene constructs in C33A cells. Thus, these mutations improve rtTA activity independent of the type of promoter and the episomal or chromosomal status of the target gene.
The V10 variant needs only 44 ng/ml dox to reach this activity level, which reflects a 23-fold higher dox-sensitivity than the wild-type rtTA.
rtTA activity assay. Two firefly luciferase reporter constructs with different promoter configurations were used. pLTR-2ΔtetO-luc contains the LTR-2ΔtetO promoter derived from the HIV-rtTA molecular clone (Marzio et al. 2001; Marzio et al. 2002). pCMV-7tetO-luc, previously named pUHC13-3 (Gossen et al. 1992), contains seven tetO elements located upstream of a minimal CMV promoter. The plasmid pRL-CMV (PROMEGA®, Madison, Wis., USA), in which the expression of Renilla luciferase is controlled by the CMV promoter, was used as an internal control to allow correction for differences in transfection efficiency.
C33A and HeLa X1/6 cells were grown in 2-cm^2 wells to 60% confluency and transfected by the calcium phosphate precipitation method (Das et al. 1999). C33A cells were transfected with 0.4 ng pCMV-rtTA (wild-type or mutant), 20 ng pLTR-2ΔtetO-luc or pCMV-7tetO-luc, 0.5 ng pRL-CMV, and 980 ng pBluescript as carrier DNA. HeLa X1/6 cells were transfected with 8 ng pCMV-rtTA, 2.5 ng pRL-CMV, and 990 ng pBluescript. The amount of the DNA constructs was optimized for each cell type to keep rtTA-mediated transactivation within the linear range and to avoid squelching of transcription factors. Cells were cultured for 48 hours in the presence of different concentrations of dox, Tc or Mc, and lysed in Passive Lysis Buffer (PROMEGA®). Firefly and Renilla luciferase activities were determined with the dual-luciferase reporter assay (PROMEGA®). The activity of the rtTA variants was calculated as the ratio of the firefly and Renilla luciferase activities, and corrected for between-session variation.
FIG. 2. Novel rtTA variants show increased activity and dox-sensitivity in different Tet systems. The transcriptional activity of rtTA variants was measured in C33A cells transfected with a plasmid carrying the firefly luciferase reporter gene under the control of the viral LTR-2ΔtetO promoter (LTR-2ΔtetO; A) or under the control of a minimal CMV-derived promoter coupled to seven tetO elements (CMV7-tetO; B). Furthermore, rtTA activity was measured in HeLa X1/6 cells (Baron et al. 1997) that contain a chromosomally integrated copy of the CMV-7tetO reporter construct (CMV7tetO-integrated; C, D). Variants V1 to V10 were compared in all three Tet systems (panels A-C) and variants V11 to V18 in the cells with the integrated reporter (panel D). Cells were transfected with the indicated rtTA expression plasmid or pBluescript as a negative control, and a plasmid constitutively expressing Renilla luciferase to correct for differences in transfection efficiency. Cells were cultured in the presence of different dox concentrations (0-1000 ng/ml). The ratio of the firefly and Renilla luciferase activities measured 2 days after transfection reflects the rtTA activity. All values were related to the wild-type (wt) rtTA activity at 1000 ng/ml dox, which was arbitrarily set at 100%. In (C and D), average values of three transfections are shown with error bars indicating the standard deviation.
FIG. 3. […]

[1] = listed as S12G F67S V9I G138D F86Y A209T

Row | Molecule | basal / background activity in the absence of inducer | further results
1 | B1 | no or low basal activity | 
2 | B2 | no or low basal activity | rtTA activation by minocycline (Mc): particularly sensitive for minocycline; rtTA activation by tetracycline (Tc): particularly sensitive for tetracycline
3 | B3 | no or low basal activity | 
4 | B4 | no or low basal activity | 
5 | B5 | no or low basal activity | rtTA activation by minocycline (Mc) [1]: particularly sensitive for minocycline; also recorded: very sensitive for minocycline; rtTA activation by tetracycline (Tc) (listed as 512G F67S V9I G138D F86Y A209T): particularly sensitive for tetracycline; rtTA activation by tetracycline (Tc) [1]: very sensitive for tetracycline; basal / background activity in the absence of inducer [1]: low background activity
6 | B6 | no or low basal activity | 
7 | B7 | no or low basal activity | 
8 | B8 | no or low basal activity | 
9 | B9 | no or low basal activity | 
10 | B10 | no or low basal activity | rtTA activation by minocycline (Mc): particularly sensitive for minocycline; rtTA activation by tetracycline (Tc): particularly sensitive for tetracycline
11 | B11 | no or low basal activity | rtTA activation by minocycline (Mc) (listed as F67S E37Q F86Y A209T): particularly sensitive for minocycline; also recorded: very sensitive for minocycline; basal / background activity in the absence of inducer (listed as F67S E37Q F86Y A209T): low background activity
12 | B12 | no or low basal activity | 
